{
  "source": "the DeepSol protein solubility set",
  "data": [
    {"test": "soluble on expression in E. coli; label from the status in PepcDB or PDB records", "values": [
      {"sequence": "MGSDKIHHHHHHMSDIDFAKKMSFQRHFSRPKTAESEYAIVRQFESDRGRIINSAAIRRLQQKTQVFPLERNAAVRSRLTHSMEVQQVGRYIAKEILHRLQADERLASLGLADRETPFESLVEMACLMHDIGNPPFGHFGESAINQWFRKLLDSHYLDNESPERVDDCKVPTLRMQQDGLDDLRGQIRQDLSHFEGNAQAIRLVHTLLKLNLTYGQVACILKYTRPAYWHGELPADYNYLMKKPGYYLSEEAFVAKLREELDMGEFHRHPLSYIMEAADDVSYCIADLEDAVEKDILTIEELYDRLRENWGTGAEKDIFAKTIERAYKERERFQWRSHDDQFFMNLRVYTVGQMVPHAALRFIDNLPEIYTGSFNQALLEDDSPQNRLLGIFKHVALKHVFNHHEVEQLELQGDRVIRGLLDIYSPLLDMPYQDFSQLVSADTHKRYPIETRLYHKLSSKHCLAYREAVTELDGVAEPERIIREYYYRARLIQDYISGMTDLYAYDEYRMLMAAD", "soluble on expression in E. coli": "not soluble"},
      {"sequence": "MSLNEPVMNKKHFADNNFEEFQRIIRAKLENFKDRIELIEELLSKYHPTRLKEYTKDGIIYSKQCEFYNFLVGMNEAPFICNRKDLYLKEKMHGGVKEVYFANKHGKILNDDLSEKYFSAIEISEYAPKSQSDLFDKINALDSEFIFMHAYSPKNSQVLKDKLAFTSRRIIISGGSKEQGMTLGCLSELVGNGDITLGSYGNSLVLFADSFEKMKQSVKECVSSLNAKGFLANAATFSMENYFFAKHCSFITLPFIFDVTSNNFADFIAMRAMSFDGKEDNNAWGNSVMTLKSEINSPFYLNFHMPTDEGHHHHHH", "soluble on expression in E. coli": "not soluble"},
      {"sequence": "MSLRVMIVDDHGTNRELCRFILAHIASHIDTFEDGQQAIDAMREMEILPDVILLDVMMPIKDGFVTAKEIRQAFVKHHIPIIFLTVLDDRDSFEKCLALGDDFILKPVERSVLIAKVQAHYRIVKMHNEGHHHHHH", "soluble on expression in E. coli": "not soluble"},
      {"sequence": "MKIAVVAANGKAGQLITKEAVERSLDVTAIVRSENKTVAHQVIQKDLFDLTKEDIAPFDVIVDAFGQMNKDKLNEHSQSLEHLSNLVSDSQKRLIIIGGAGSLYVDKAHTERLIDSPDMPEEVKPISMAQVKTFEEIKERDDVQWTFVCPAPDFQFDGEKTGAYKVSDDEVIGTHVSYADFAKAIVDEAMNPEHIQSRFAVFAKLEHHHHHH", "soluble on expression in E. coli": "soluble"},
      {"sequence": "MAINLQTLFKKKREGKKITMVSTYDYWSAKLCDEVGIDCILVGDSLGTVVKGEGDTLSVTLEEIIYHTKCVMRGVKNAFVIADMPFMSYQVSMEKAVENCGRVIKETKAKAVKLEGGEEIAELVYKLTRIGIPVVGHVGFTPQHINVFGKPKVVGKKKEEEEKLRRDFRALEEAGAFMIVLESVPTHLAKELWKGSNSIVIGIGAGKYVDGQVLVFHDIVGLFEDFKPKFVRRYLEGAKLVKEALKNFKIDVEGGNFPSEEESYG", "soluble on expression in E. coli": "not soluble"},
      {"sequence": "MGSDKIHHHHHHMNKFNDIIDECDLSFSDWGKNYPRWSSLDAAWWKTFGGDNYLNKYKDGYIVFHREKIKEIARQYKIPSILLASVAHAEAGGMVDYFKYPTLFGRQVVHSYSGWPGKEKILPSPEKTSIGIIAMQIRVVAEIFGKNPSALRNAEATYISICLNKDNFNLTMVARHLYELINYDYPGTDTLNLTDEQFILAGARYNRGVQRSRSDLIRSINAEKDLIEVRDWTSYGRSMLNHREKITKLLYEVTTPPKNSDSN", "soluble on expression in E. coli": "not soluble"},
      {"sequence": "MSLRFALTPGEPAGIGPDLCLLLARSAQPHPLIAIASRTLLQERAGQLGLAIDLKDVSPAAWPERPAKAGQLYVWDTPLAAPVRPGQLDRANAAYVLETLTRAGQGCLDGHFAGMITAPVHKGVINEAGIPFSGHTEFLADLTHTAQVVMMLATRGLRVALATTHLPLREVADAISDERLTRVARILHADLRDKFGIAHPRILVCGLNPHAGEGGHLGREEIEVIEPCLERLRGEGLDLIGPLPADTLFTPKHLEHCDAVLAMYHDQGLPVLKYKGFGAAVNVTLGLPIIRTSVDHGTALDLAGSGRIDSGSLQVALETAYQMAASRC", "soluble on expression in E. coli": "soluble"},
      {"sequence": "MSLTNQVTYLFFHGMKQISEHLFTTEEQAIIARSKAEGSYMKAPNGQATNLNKKQWAQVRTRAFREWFGDWENNPDEASKVRDANGEPLVVYHGTPISRDQAADRSKFRIADDWEIQTINAPFHTFRGGAYNGLIFTSLTEEKARSIGETRSMSIPDSEDGREQWTTDSYVYDLFVNARQPFDVKNPNAVKDILDALEGQLTAYDFYLGMEVPVSRKEAEKILEGGNSWRVVETPSMQEIIRSRGYDAIHALDEGVQYMAVFAPNQLKASGKYLYSERNTGVFSPGNNDIRFREVHHGVPASFTGYRSMKTETVRNDNIPAVLAALREKLEDTEQEWQDRILDYIAENYPTQTTVSAQTRSPEGLKEREAMKKDKTLRKMKEEAVAALNAADEKVMEAFKKENGDILFREVKENDGGKSLVGLHNISEEKLLKALKLGGLANPSAAVIDIARQSHEGYGEISLILPSSMIDKRTGRNAGTFSGDAWTPVYPQIERQFSGDGSGRVRDAISRLPQEMQPNVRSAWNSYMDGRDEGSAFAYQFLYERGEAPEFRKIEPLFGEHLRNRISAIDALDDYDERNTALLEVYIEENFGGDQTKFKDYIETRKRVLQDKEGHHHHHH", "soluble on expression in E. coli": "not soluble"},
      {"sequence": "MQPDLHCRTLAAHTLKHFRALSPLTHCMTNDVVQTFTANTLLALGASPAMVIDPVEARPFAAIANALLINVGTLTASRADAMRAAVESAYDAKTPWTLDPVAVGALEFRRRFCLDLLSLRPAAIRGNASEILALSGMALGGRGVDTTEAALAALPAAQALARQIDCIVVVTGEIDYVTNGQRTLSIPGGDPLMTRIVGTGCALSAVVAASCALPGAALDNVASACCWMKLAGQAAAERSEGPGSFIPAFLDALYHLDVEAANATN", "soluble on expression in E. coli": "not soluble"},
      {"sequence": "MRVQPVTNCEKAVILEALKIGKRFDFRSLEEFRDVKLVVGAEVGTAICTIGNTKVMAAVSAEIAEPSSMRPHKGVINIDVDLSPMANYANEHDRLGSKGMELIRLLELIIRDSRCIDVEALCIRAGKEIWKIRVDVRILDEDGSLLDCACLAAITALQHFRRPNVTLEPHHTLIYSEYEKAPVPLNIYHMPICTTIGLLDKGQIVVIDPTDKETACLDGSIVVACNKRREVCALHQSTNLILSTKQIERCVKLAMARAEALTAVVSDVIKQDQIERSAFKRPDGFAITTPSLILTAGTTASRQIRAPVIKTEPESFTQRSLYQPSVILNENPLSVGSVKQEDVDEETLLAEQLTTIQNSVGQVEVTEKQTVAVSSRKREVEEVNDLLDGLDDDDEEEEVQTMTLGSETVLNDVPMEEAPDAEDSLVNAKKKKKK", "soluble on expression in E. coli": "not soluble"},
      {"sequence": "MSLTFYWYPKCGTCRKAKKWLEEHGKEINEIHIAEQPPSKEELKALYEKSGLDLKKFFNTSGMKYRELNLKEKLYHMSEDEQLELLASDGMLIKRPLTTDGEKVTVGFKEDQFEENWA", "soluble on expression in E. coli": "not soluble"},
      {"sequence": "MGSSHHHHHHSSGRENLYFQGHMTRSAEPRVLQFCHGYDGPFLDCARQYASLFAGTPYKVTTVFLTGRSDPEVAARCASDEVLFLEYGSRDIRGLKLKAIRDLREIARSRDFRFCIAHRFKPIWIASLATRLPIVGVHHAFGDYQRLSRKVFAGLMSKRLSLLAVSDAVRDDIRRCLPKWPAERIETLYNRIDVAALQAEQVERLSARRQLRLPDEAWVVGNVGRLHPDKDQATLLRGFAAALPRLPQNSLLAILGSGRLEEQLKDLACELGIGERVLFLGQVEEARRYFKAFDAFALSSDHEPFGMVLLEAMVAGVPLIATACGGAREVVEGVGILFPLGDETALAEGLTHLAALDRRQREACARLMLERLETRFSDAAVRREFWRLPTIAGFASESAC", "soluble on expression in E. coli": "soluble"},
      {"sequence": "MGSDKIHHHHHHMSLEGLSINFATVRQGGNFGAIVDACLAHGITAISPWREQVHGVGLAEAARIVEQNGLRLSGHCRGGFFPAIDADGRRRAIEDNKRAVDEAAAMKADCLVLVVGGLPAGSRDLKGARQMVEDGMAKLLPYARAAGVPLAIEPLHPFYAAERACFNTLKQSLDLCDRLGAGTGVAIDVYHVWWDPELEEQVARAGRNGQILAHHICDWLVPTTDPLNDRGMMGDGVIDLKAFRAMIEAAGFHGPQEVEIFSHRWQARPMDEVLATVVERFKTVC", "soluble on expression in E. coli": "not soluble"},
      {"sequence": "ATCDDGRTTANAACCILFPILDDIQENLFDGAQCGEEVHESLRLTFHDAIGFSPTLGGGGADGSIIAFDTIETNFPANAGIDEIVSAQKPFVAKHNISAGDFIQFAGAVGVSNCPGGVRIPFFLGRPDAVAASPDHLVPEPQDSVDSILARMGDAGFSPVEVVWLLASHSIAAADKVDPSIPGTPFDSTPGVFDSQFFIETQLKGRLFPGTADNKGEAQSPLQGEIRLQSDHLLARDPQTACEWQSMVNNQPKIQNRFAATMSKMALLGQDKTKLIDCSDVIPTPPALVGAAHLPAGFSLSDVEQACAATPFPALTADPGPVTSVPPVPGS", "soluble on expression in E. coli": "soluble"}
    ]}
  ]
}
